What all share (assay): EMSA
Holding throughout (conditions): RBB50: 20 mM Tris-HCl pH 7.6, 50 mM KCl, 5 mM MgCl2, 100 mg/mL BSA (so in the source), 10% glycerol, 1 mM DTT, plus 100 mM KCl and 20 U RNasin; 20 ul, 30 min, RT …

The subject of series [1] is RBP7910 P164A (Trypanosoma brucei).
In series [2] the test system is RBP7910 W56A (Trypanosoma brucei).
Series [3] deals with RBP7910 P76A (Trypanosoma brucei).
Series [4] has as its system RBP7910 R53A (Trypanosoma brucei).
In series [5] the test system is RBP7910 T52A (Trypanosoma brucei).
Series [6] relates to RBP7910 W79A (Trypanosoma brucei).
In series [7] the test system is RBP7910 P77A (Trypanosoma brucei).
Series [8] concerns RBP7910 W188A (Trypanosoma brucei).
For series [9], the system named is RBP7910 F167A (Trypanosoma brucei).

Consider gA6[14] (delta16G) gRNA with U-tail, for which the dissociation constant (Kd) in series [1] came out at 0.27 nM; in series [2], 0.37 nM; in series [3] it was 0.18 nM; in series [4], 0.81 nM; in series [5] it was 0.61 nM; in series [6] it was 0.32 nM. The values for the dissociation constant Kd in [7], in series [8] and in [9] were 0.3 nM, 0.55 nM and 0.3 nM, respectively.

These data come from publication PMC6459835, “The RNA binding activity of the first identified trypanosome protein with Z-DNA-binding domains”.
